Reference: FireProtDB (doi:10.1128/aem.02129-17)

B1: Lipase, P19515 (parent)
chain: MVLKQRANYLGFLIVFFTAFLVEAVPIKRQSNSTVDSLPPLIPSRTSAPSSSPSTTDPEAPAMSRNGPLPSDVETKYGMALNATSYPDSVVQAMSIDGGIRAATSQEINELTYYTTLSANSYCRTVIPGATWDCIHCDATEDLKIIKTWSTLIYDTNAMVARGDSEKTIYIVFRGSSSIRNWIADLTFVPVSYPPVSGTKVHKGFLDSYGEVQNELVATVLDQFKQYPSYKVAVTGHSLGGATALLCALDLYQREEGLSSSNLFLYTQGQPRVGDPAFANYVVSTGIPYRRTVNERDIVPHLPPAAFGFLHAGEEYWITDNSPETVQVCTSDLETSDCSNSIVPFTSVLDHLSYFGINTGLCT

Variants of: B1
Conditions: Rhizomucor miehei; pH 8; Thermal; DSF; sodium phosphate buffer 50 mM; structure 6QPR; whole UniProt chain shown

Row | Variant | Tm | change of melting temperature, mutant - wild type (higher = more stable)
1 | T112K T116I E324I V283C D332C | 72.3 °C | 13.6 °C
2 | T112K T116I E324I | 68.1 °C | 9.4 °C
3 | D332R | 58 °C | -2.8 °C
4 | D332Y | 58.7 °C | -5.4 °C
5 | D332P | 58.7 °C | -3.8 °C
6 | D332W | 58.7 °C | -4.5 °C
7 | D332L | 57.8 °C | -2.5 °C
8 | D332F | 58.2 °C | -3 °C
9 | E314V | 58.8 °C | -5.3 °C
10 | E314I | 58.7 °C | -2.7 °C
11 | N214R | 59.4 °C | -13.6 °C
12 | N214L | 59.2 °C | -7.5 °C
13 | T112K | 63.2 °C | 4.5 °C
14 | T112I | 58.1 °C | -3 °C
15 | T112W | 57.8 °C | -2.2 °C
16 | E324W | 61.4 °C | 2.7 °C
17 | E324I | 64.4 °C | 5.7 °C
18 | E324R | 59.9 °C | 1.2 °C
19 | E324F | 60.3 °C | 1.6 °C
20 | E324L | 64.1 °C | 5.4 °C

Row | Variant | Tm | change of melting temperature, mutant - wild type (higher = more stable)
21 | E324M | 60 °C | 1.3 °C
22 | E324T | 62.5 °C | 3.8 °C
23 | E324V | 64.1 °C | 5.4 °C
24 | E324P | 61.2 °C | 2.5 °C
25 | E324Y | 60.8 °C | 2.1 °C
26 | T112K T116I | 64 °C | 5.3 °C
27 | N358W | 57.2 °C | -2.7 °C
28 | N280L | 59.3 °C | -10 °C
29 | N280W | 55.6 °C | -3.1 °C
30 | T116I | 61.1 °C | 2.4 °C
31 | Q327I | 59.5 °C | 2.3 °C
32 | S208V | 59.1 °C | -4.9 °C
33 | S208W | 59.5 °C | 3.9 °C
34 | S208F | 59.2 °C | -6.4 °C
35 | S208Y | 58.9 °C | -5.5 °C
36 | T112K T116I E324I S150C N157C | 69.3 °C | 10.6 °C
37 | T112K E324I | 66.7 °C | 8 °C
38 | D320L | 58.7 °C | -3.3 °C
39 | N321L | 59.3 °C | -13 °C
